Assay results as given in IntAct's records for PubMed 16286920.

B1: Galectin-9 (Mus musculus), O08573-2 (parent)
chain: MALFSAQSPYINPIIPFTGPIQGGLQEGLQVTLQGTTKSFAQRFVVNFQNSFNGNDIAFHFNPRFEEGGYVVCNTKQNGQWGPEERKMQMPFQKGMPFELCFLVQRSEFKVMVNKKFFVQYQHRVPYHLVDTIAVSGCLKLSFITFQTQNFRPAHQAPMAQTTIHMVHSTPGQMFSTPGIPPVVYPTPAYTIPFYTPIPNGLYPSKSIMISGNVLPDATRFHINLRCGGDIAFHLNPRFNENAVVRNTQINNSWGQEERSLLGRMPFSRGQSFSVWIICEGHCFKVAVNGQHMCEYYHRLKNLQDINTLEVAGDIQLTHVQT

Variants of: B1
Details: with havr2_mouse Havcr2, Q8VIM0
Sequence of havr2_mouse Havcr2, Q8VIM0 (Q8VIM0 whole entry): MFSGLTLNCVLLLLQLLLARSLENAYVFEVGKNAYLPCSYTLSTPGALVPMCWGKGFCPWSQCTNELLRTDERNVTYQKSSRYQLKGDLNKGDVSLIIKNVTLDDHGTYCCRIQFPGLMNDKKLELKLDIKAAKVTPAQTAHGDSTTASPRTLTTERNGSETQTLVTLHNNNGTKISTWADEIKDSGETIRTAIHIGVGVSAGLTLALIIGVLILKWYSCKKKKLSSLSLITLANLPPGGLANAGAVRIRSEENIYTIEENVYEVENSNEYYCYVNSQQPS

effect of a mutation on the interaction	Variant
disrupting interaction strength	R64A;R238A
decreasing interaction strength	R238A
decreasing interaction strength	R64A
